# Source: article PMC2266626
# Legend:
# Experiment in all cases: FRET or BRET
# [1] = biological target: YFP-GKC (rat)
# [2] = biological target: YFP-GKC[trunc] (rat)
# [3] = biological target: YFP-α1C (α1C[1671]) (UniProt P15381)
# [4] = biological target: YFP-GKC[ΔPYDVV] (rat)
Substance,FRET ratio (FR) [1],"K d,EFF (relative dissociation constant) [1]",effective FRET efficiency (E EFF) [1] [%],FRET ratio (FR) [2],"K d,EFF (relative dissociation constant) [2]",effective FRET efficiency (E EFF) [2] [%],FRET ratio (FR) [3],"K d,EFF (relative dissociation constant) [3]",FRET ratio (FR) [4],effective FRET efficiency (E EFF) [4] [%]
CFP-NSH3 (domain or fragment),2.8,1870,10.2,3.7,3090,15.5,1.68,11700,–,–
CFP-α1C[I-II loop] (domain or fragment),5.4,–,25.6,–,–,–,–,–,5.5,26.1
